Patent publication US20150064134A1

How the values were obtained:
Experiment in all cases: cell-based or functional assay
ARK5(h) (human) = biological target: T1, ARK5(h) (human) (UniProt O60285)
T1 sequence (looked up): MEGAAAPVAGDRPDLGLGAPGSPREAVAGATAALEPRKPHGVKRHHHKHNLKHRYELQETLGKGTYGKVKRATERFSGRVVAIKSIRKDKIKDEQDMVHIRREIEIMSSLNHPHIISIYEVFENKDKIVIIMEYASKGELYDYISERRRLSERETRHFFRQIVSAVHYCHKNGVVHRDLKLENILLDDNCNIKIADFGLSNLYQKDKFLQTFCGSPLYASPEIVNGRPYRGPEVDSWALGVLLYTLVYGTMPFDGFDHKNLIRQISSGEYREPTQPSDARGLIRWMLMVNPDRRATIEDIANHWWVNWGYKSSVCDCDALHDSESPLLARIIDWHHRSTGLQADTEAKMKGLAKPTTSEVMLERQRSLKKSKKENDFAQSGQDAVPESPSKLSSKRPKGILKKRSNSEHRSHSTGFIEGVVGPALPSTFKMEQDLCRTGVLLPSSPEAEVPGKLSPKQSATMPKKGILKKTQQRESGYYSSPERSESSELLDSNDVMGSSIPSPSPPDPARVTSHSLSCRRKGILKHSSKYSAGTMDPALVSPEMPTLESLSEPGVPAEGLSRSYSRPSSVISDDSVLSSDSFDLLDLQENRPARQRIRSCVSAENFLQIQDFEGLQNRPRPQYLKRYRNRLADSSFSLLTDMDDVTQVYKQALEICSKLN

BrSK2(h) (human) = biological target: T2, BrSK2(h) (human) (UniProt Q8IWQ3)
T2 sequence (looked up): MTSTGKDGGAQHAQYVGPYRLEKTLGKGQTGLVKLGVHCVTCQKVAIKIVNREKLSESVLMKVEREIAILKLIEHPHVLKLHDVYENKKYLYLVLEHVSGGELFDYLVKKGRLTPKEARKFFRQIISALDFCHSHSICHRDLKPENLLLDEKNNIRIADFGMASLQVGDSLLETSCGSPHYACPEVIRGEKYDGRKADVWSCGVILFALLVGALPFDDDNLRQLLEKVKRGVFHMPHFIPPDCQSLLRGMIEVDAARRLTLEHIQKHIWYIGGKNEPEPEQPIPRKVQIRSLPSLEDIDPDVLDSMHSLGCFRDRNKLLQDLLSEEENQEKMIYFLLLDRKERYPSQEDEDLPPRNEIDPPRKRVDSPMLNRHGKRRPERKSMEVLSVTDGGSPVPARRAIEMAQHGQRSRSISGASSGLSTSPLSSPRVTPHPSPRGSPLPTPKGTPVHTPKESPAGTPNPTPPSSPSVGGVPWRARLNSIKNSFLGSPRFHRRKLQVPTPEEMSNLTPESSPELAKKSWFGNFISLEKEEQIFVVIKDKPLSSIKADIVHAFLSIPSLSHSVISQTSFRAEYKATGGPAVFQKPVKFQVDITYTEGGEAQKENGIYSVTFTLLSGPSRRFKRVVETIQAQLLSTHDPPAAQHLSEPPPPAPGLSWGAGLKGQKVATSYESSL

CHK2(h) (human) = CHK2(h) (human) (UniProt O96017)
Sequence of CHK2(h) (human) (O96017 5-543 limits assumed): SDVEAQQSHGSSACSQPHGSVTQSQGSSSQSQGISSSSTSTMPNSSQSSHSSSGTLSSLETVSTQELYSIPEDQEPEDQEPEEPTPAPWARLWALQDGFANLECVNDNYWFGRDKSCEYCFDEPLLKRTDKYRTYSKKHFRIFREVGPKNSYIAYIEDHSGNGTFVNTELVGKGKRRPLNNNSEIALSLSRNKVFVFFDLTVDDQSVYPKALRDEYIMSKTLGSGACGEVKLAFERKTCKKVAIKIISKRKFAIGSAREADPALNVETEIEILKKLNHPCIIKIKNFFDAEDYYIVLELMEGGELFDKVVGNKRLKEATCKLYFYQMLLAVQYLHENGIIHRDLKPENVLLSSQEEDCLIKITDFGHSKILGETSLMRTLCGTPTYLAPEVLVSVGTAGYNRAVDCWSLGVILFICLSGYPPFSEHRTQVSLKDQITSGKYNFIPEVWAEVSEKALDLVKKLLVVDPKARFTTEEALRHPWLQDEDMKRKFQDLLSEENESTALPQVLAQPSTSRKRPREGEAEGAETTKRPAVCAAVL

CaMKIIγ(h) (human) = CaMKIIγ(h) (human) (UniProt Q13555)
Sequence of CaMKIIγ(h) (human) (Q13555 whole entry): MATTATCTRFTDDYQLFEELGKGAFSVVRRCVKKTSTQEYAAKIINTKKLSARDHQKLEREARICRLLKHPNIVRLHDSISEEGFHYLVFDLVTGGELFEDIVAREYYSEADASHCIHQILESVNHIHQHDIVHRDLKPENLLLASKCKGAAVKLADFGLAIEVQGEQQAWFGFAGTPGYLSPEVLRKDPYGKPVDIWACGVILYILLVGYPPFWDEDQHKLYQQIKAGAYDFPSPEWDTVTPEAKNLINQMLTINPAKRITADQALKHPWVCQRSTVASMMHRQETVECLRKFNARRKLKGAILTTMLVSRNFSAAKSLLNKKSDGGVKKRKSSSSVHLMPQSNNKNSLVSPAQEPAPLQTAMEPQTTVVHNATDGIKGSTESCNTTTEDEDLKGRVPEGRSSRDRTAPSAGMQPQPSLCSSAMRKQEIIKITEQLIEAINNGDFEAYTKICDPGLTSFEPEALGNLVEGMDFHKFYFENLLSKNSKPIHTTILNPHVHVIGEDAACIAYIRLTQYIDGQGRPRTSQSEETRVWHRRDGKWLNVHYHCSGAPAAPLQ

EphA4(h) (human) = EphA4(h) (human) (UniProt P54764)
Sequence of EphA4(h) (human) (P54764 570-986 limits assumed): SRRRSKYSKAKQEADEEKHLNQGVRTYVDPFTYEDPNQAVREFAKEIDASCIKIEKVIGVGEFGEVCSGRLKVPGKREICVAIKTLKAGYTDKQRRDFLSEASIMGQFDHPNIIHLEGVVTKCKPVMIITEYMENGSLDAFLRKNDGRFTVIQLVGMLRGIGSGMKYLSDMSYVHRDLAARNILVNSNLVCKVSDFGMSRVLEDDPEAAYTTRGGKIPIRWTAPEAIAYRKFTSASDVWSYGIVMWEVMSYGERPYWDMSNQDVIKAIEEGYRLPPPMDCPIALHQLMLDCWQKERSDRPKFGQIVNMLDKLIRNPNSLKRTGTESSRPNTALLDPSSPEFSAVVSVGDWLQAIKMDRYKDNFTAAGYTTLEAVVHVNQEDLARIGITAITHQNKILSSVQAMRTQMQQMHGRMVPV

IR(h) (human) = IR(h) (human) (UniProt P06213)
Sequence of IR(h) (human) (P06213 1005-1310 limits assumed): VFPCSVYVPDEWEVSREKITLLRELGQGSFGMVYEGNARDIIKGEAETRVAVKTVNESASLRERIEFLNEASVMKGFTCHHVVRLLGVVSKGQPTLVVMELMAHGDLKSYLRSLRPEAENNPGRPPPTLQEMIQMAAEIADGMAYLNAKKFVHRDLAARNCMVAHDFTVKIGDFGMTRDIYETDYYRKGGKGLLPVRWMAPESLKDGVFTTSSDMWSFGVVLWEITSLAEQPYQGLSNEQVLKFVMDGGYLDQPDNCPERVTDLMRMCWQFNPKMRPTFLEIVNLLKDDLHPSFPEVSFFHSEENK

Lyn(h) (human) = Lyn(h) (human) (UniProt P07948)
Met(M1268T)(h) (human) = Met(M1268T)(h) (human) (UniProt P08581)
NEK2(h) (human) = biological target: T3, NEK2(h) (human) (UniProt P51955)
T3 sequence (looked up): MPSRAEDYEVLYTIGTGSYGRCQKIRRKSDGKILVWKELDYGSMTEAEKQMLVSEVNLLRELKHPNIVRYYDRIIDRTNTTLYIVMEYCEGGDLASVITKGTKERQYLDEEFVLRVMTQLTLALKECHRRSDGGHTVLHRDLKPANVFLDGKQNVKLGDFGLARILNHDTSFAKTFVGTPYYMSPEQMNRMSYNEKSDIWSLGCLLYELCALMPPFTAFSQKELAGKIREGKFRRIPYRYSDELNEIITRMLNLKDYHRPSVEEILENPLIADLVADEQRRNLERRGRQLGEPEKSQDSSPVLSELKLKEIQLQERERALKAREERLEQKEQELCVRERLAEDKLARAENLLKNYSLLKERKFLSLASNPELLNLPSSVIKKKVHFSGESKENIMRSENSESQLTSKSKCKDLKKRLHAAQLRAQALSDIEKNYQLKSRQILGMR

PASK(h) (human) = PASK(h) (human) (UniProt Q96RG2)
PDGFRα(h) (human) = PDGFRα(h) (human) (UniProt P16234)
Sequence of PDGFRα(h) (human) (P16234 550-1089 limits assumed): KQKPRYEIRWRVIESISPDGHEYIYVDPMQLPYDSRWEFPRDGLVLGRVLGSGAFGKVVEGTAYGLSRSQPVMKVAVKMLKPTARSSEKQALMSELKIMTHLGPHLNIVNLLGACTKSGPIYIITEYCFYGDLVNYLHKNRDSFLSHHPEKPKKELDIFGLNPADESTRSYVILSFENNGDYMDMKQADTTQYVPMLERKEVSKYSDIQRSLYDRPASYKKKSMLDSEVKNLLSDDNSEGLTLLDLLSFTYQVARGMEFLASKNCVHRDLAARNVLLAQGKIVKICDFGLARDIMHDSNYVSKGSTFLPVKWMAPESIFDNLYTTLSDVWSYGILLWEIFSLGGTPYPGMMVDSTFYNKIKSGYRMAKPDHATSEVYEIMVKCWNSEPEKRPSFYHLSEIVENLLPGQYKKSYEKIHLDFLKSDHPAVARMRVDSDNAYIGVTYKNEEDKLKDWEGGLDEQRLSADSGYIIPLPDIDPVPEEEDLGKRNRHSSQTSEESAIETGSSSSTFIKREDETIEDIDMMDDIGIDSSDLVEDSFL

PDGFRβ(h) (human) = PDGFRβ(h) (human) (UniProt P09619)
Sequence of PDGFRβ(h) (human) (P09619 557-1106 limits assumed): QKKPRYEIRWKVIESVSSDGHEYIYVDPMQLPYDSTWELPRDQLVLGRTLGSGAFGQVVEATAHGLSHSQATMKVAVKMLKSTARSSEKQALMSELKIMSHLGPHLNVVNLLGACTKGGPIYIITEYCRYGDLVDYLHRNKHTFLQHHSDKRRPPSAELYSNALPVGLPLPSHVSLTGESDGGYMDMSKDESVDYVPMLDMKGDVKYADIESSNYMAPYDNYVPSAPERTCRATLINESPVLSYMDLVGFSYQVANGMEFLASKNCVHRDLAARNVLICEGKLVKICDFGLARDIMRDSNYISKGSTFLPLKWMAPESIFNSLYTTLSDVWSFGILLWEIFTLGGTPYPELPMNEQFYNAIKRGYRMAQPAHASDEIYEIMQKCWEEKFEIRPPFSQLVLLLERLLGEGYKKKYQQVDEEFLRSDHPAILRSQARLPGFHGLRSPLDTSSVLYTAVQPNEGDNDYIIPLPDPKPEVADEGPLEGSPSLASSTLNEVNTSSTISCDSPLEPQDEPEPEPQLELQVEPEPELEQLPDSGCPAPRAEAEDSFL

PDK1(h) (human) = biological target: T4, PDK1(h) (human) (UniProt O15530)
T4 sequence (looked up): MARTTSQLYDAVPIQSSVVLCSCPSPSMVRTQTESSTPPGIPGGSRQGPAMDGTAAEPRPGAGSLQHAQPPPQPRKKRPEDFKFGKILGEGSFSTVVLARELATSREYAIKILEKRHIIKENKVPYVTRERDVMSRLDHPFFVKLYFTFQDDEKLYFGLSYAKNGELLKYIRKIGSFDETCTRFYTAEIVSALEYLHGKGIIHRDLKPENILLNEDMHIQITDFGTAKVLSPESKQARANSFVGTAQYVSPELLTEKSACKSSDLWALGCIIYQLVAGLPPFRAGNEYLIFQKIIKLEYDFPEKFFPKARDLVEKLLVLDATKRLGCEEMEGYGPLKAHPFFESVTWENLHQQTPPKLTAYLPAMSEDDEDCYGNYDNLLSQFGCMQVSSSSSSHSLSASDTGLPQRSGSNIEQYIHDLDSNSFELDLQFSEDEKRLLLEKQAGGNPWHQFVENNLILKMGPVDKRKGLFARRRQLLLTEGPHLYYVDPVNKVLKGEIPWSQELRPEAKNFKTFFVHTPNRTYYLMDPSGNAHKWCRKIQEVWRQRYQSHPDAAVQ

Rsk4(h) (human) = Rsk4(h) (human) (UniProt Q9UK32)
Sequence of Rsk4(h) (human) (Q9UK32 whole entry): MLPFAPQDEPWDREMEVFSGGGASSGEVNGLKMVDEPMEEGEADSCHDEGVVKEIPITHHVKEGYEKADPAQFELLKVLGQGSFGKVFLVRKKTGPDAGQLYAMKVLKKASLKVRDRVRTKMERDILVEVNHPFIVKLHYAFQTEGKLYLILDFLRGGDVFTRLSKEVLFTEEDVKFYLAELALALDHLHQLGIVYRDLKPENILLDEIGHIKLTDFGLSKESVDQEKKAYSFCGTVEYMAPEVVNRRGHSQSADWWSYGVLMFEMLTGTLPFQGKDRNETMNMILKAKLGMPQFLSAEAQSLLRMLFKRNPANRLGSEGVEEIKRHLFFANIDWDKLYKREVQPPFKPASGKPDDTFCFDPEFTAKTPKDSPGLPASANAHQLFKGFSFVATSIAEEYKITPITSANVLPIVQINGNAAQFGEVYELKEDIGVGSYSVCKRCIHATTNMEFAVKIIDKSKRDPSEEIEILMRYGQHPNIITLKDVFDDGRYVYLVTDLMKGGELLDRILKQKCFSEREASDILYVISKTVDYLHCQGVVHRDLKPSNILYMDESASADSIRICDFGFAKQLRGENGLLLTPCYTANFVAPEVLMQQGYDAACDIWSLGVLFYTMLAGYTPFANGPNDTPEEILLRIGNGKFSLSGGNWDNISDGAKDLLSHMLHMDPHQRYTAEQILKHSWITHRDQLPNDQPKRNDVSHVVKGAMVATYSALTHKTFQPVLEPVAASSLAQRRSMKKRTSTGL

Row | Substance | % activity at 100 µM (ARK5(h) (human)) [%] | % activity at 100 µM (BrSK2(h) (human)) [%] | % activity at 100 µM (CHK2(h) (human)) [%] | % activity at 100 µM (CaMKIIγ(h) (human)) [%] | % activity at 100 µM (EphA4(h) (human)) [%] | % activity at 100 µM (IR(h) (human)) [%] | % activity at 100 µM (Lyn(h) (human)) [%] | % activity at 100 µM (Met(M1268T)(h) (human)) [%] | % activity at 100 µM (NEK2(h) (human)) [%] | % activity at 100 µM (PASK(h) (human)) [%] | % activity at 100 µM (PDGFRα(h) (human)) [%] | % activity at 100 µM (PDGFRβ(h) (human)) [%] | % activity at 100 µM (PDK1(h) (human)) [%] | % activity at 100 µM (Rsk4(h) (human)) [%]
1 | MMI-0400 (peptide) | 69 | 86 | 54 | 3 | 65 | 85 | 3 | 265 | 61 | 28 | 40 | 53 | 159 | 91
2 | MMI-0300 (peptide) | 78 | 83 | 66 | 5 | 88 | 96 | 69 | 255 | 78 | 29 | 65 | 81 | 135 | 90
3 | MMI-0500 (peptide) | 20 | 84 | 13 | 3 | 48 | 95 | 31 | 239 | 0 | 9 | 40 | 40 | 178 | 29
